{
  "source": "patent US20170022269A1",
  "key": {"[1]": {"molecular_target": "Aβ(20-42) globulomer (human)", "sequence (peptide, as listed by the source)": "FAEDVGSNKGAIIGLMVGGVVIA", "assay": "dot blot densitometry, antibody 0.2 µg/ml; column Aβ(20-42) globulomer (reference)"}, "Aβ(1-42) fibrils (human)": {"molecular_target": "Aβ(1-42) fibrils (human) (UniProt P05067)", "sequence (P05067 672-713)": "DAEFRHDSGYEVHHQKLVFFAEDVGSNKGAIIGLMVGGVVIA", "assay": "co-pelleting with Aβ(1-42) fibrils, SDS-PAGE, optical density of the heavy chain in pellet / (pellet + supernatant)"}},
  "data": [
    {"substance": "commercially available antibody 6E10 (Signet, Cat. no. 9320)", "values": [
      {"measurement": "relation between recognition of Aβ(20-42) globulomer and the respective Aβ form", "setting": "[1]", "result": 1},
      {"measurement": "antibody bound to fibrils [%]", "setting": "Aβ(1-42) fibrils (human)", "result": 98, "unit": "%"}
    ]}
  ]
}
